Experimental data published in patent US20100062462A1, “IMMUNODEFICIENCY VIRUSES” (priority 2005, published 2010).

Experiments:
[1] = tested on: NFκB-mediated transcription; experiment: NFκB activation in an over-expression system; format: cell-based
primary human T cells = experiment: transfection of primary human T cells, viability by light scatter and apoptosis by TUNEL; format: cell-based; details: PBL from HIV-negative donors transfected with pcDNA3 HA casp8p41, compared with GSK3β control vector
Method: Primary human T cells were tested for their response to expression of casp8p41 polypeptide by transfecting cells with a vector encoding casp8p41 polypeptide, or with a control vector encoding glycogen synthase kinase 3β (GSK3β; Kim et al., J Biol Chem., 278:13995-14001 (2003)). PBL from HIV-negative donors were isolated and transfected with 2 μg/10×10^6 cells with pcDNA3 HA GSK3β (Ougolkov et al., Cancer Res., 65:2076-2081 (2005)) or pcDNA3 HA casp8p41 using nucleofectin (AMAXA, MD) and program U14. Transfected cells were analyzed for changes in viability by light scatter or for apoptosis by TUNEL staining.

HeLa cells = experiment: transient expression in HeLa cells, TUNEL, active caspase-3 and Annexin-V staining; format: cell-based; details: cells transfected with pEGFPC1casp8p41
Method: The effect of transient expression of casp8p41 polypeptide in HeLa cells was investigated. HeLa cells were purchased from ATCC and maintained in Dulbecco's Modified Eagle Medium (DMEM; GIBCO) supplemented with 10% (v/v) FBS, 1% penicillin and streptomycin, and 2 mM L-glutamine. The cells were incubated at 37° C. in a humidified atmosphere containing 5% CO2 and 95% air. Exponentially growing cells were seeded at 2500-5000 cells/well in a 96-well plate. The cells were transfected with a DNA plasmid expressing GFP (pEGFPC1, BD Biosciences Clontech, Palo Alto, Calif.), or with a plasmid expressing casp8p41 polypeptide as a fusion to the C-terminus of GFP (pEGFPC1casp8p41) using Fugene 6 (2 μL per μg DNA), according to the manufacturer's protocol. […]
HeLa cells transfected with pEGFPC1 or pEGFPC1casp8p41 were analyzed by confocal microscopy following staining with DAPI to visualize cell nuclei and TUNEL staining to detect apoptosis. […]
Cells transfected with pEGFPC1 and pEGFPC1casp8p41 were also subjected to Annexin-V PE, active caspase-3, and TUNEL staining and analyzed for cell death by flow cytometry, gating specifically on GFP-positive cells. […] GFP and annexin-V PE double-positive cells were analyzed by flow cytometry at 30,000 events per sample. […]

[2] = tested on: cytosols from Jurkat T cells; experiment: apoptotic signaling cascade in cell-free system (Jurkat cell extracts), Western blot; format: biochemical; details: added to cytosols from Jurkat T cells
Method: The ability of the procaspase-8 cleavage fragment p41 (hereafter referred to as casp8p41) to initiate an apoptotic signaling cascade in a cell-free system was tested. The cell free system was used previously to reveal the signaling pathway used by HIV protease to initiate apoptosis.
Jurkat cells were purchased from ATCC (Rockville, Md.) and maintained in Dulbecco's Modified Eagle Medium (DMEM) or RPMI1640 (GIBCO) supplemented with 10% (v/v) FBS, 1% penicillin and streptomycin, and 2 mM L-glutamine. The cells were incubated at 37° C. in a humidified atmosphere containing 5% CO2 and 95% air. Jurkat cell extracts were prepared as described previously (Nie et al., Cell Death Differ., 9:1172-84 (2002)). Briefly, cells (0.5×10^6 cells/mL) were harvested by centrifugation at 16000×g for 5 minutes at 4° C. The cell pellet was washed twice with ice-cold PBS (pH 7.4), followed by a single wash with ice-cold caspase buffer (20 mM PIPES, 100 mM NaCl, 10 mM DTT, 1 mM EDTA, 0.1% CHAPS, 250 mM sucrose, pH 7.2). […] Polypeptide concentrations were determined using a BCA protein assay kit (Pierce Chemical Co., Rockford, Ill.), and the resultant suspension was incubated with either HIV protease or casp8p41 polypeptide. […]

procaspase-8 = molecular target: T1, procaspase-8 (Homo sapiens, UniProt Q14790, A331P); experiment: in vitro cleavage of 35S methionine-labeled procaspase-8, autoradiography and immunoblotting; format: biochemical; details: 50 mM NaOAc (pH 4.9), 200 mM NaCl, 5 mM DTT, 10% glycerol
T1 construct: amino acids 355 and 356 were mutated in full-length caspase-8; made in house; host or cells: cell-free TNT Quick coupled transcription/translation system (Promega)
T1 sequence (Q14790 whole entry A331P): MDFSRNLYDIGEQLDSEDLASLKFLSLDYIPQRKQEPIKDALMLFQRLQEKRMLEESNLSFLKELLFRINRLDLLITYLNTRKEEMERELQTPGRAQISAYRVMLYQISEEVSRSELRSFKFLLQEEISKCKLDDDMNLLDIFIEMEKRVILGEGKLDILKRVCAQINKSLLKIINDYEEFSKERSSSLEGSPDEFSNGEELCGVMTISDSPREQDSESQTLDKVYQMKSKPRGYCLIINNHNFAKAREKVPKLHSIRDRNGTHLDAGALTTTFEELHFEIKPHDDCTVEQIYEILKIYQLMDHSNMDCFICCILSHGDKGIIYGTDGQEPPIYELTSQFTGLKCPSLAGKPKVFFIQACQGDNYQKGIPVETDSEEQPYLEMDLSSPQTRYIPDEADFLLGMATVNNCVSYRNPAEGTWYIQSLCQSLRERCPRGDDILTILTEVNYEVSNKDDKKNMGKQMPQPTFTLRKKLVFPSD
Method: The fusion polypeptide, Flag-procaspase-8-Myc, was prepared by TNTR Quick coupled transcription/translation systems (Promega, Madison, Wis.). Briefly, 1 μg of pcDNA3Flag-procaspase-8-Myc or pcDNA3Flag (as a control) was added to a 50 μL nuclease-free reaction mixture containing 40 μL of TNT Quick Master Mix and 1 μL of 1 mM […] methionine. The reaction was carried out at 30° C. for 90 minutes and stopped by adding 20 μg/mL of cycloheximide (CI-IX) and 200 μg/mL of RNase and incubating the mixture at 30° C. for 5 minutes. ^35S methionine-labeled Flag-procaspase-8-Myc fusion polypeptide was prepared by adding 40 μCi of ^35S methionine instead of 1 μL of 1 mM methionine. The reaction mixture was separated by SDS-PAGE on a 10-15% gel and visualized by autoradiography. […]
The ^35S methionine-labeled Flag-procaspase-8-Myc fusion polypeptide produced in vitro was incubated with HIV-1 protease purchased from Sachem Biosciences (King of Prussia, Pa.). […] After cleavage of ^35S methionine-labeled Flag-procaspase-8-Myc fusion polypeptide by HIV-1 protease, the products were analyzed by autoradiography (FIG. 1C, top) and immunoblotting using antibodies directed against the Flag (FIG. 1C, middle) and Myc (FIG. 1C, bottom) epitopes. […]

B1: caspase-8 polypeptide: full-length caspase-8 polypeptide, over-expressed (protein, UniProt Q14790 1-479, looked up)
chain: MDFSRNLYDIGEQLDSEDLASLKFLSLDYIPQRKQEPIKDALMLFQRLQEKRMLEESNLSFLKELLFRINRLDLLITYLNTRKEEMERELQTPGRAQISAYRVMLYQISEEVSRSELRSFKFLLQEEISKCKLDDDMNLLDIFIEMEKRVILGEGKLDILKRVCAQINKSLLKIINDYEEFSKERSSSLEGSPDEFSNGEELCGVMTISDSPREQDSESQTLDKVYQMKSKPRGYCLIINNHNFAKAREKVPKLHSIRDRNGTHLDAGALTTTFEELHFEIKPHDDCTVEQIYEILKIYQLMDHSNMDCFICCILSHGDKGIIYGTDGQEAPIYELTSQFTGLKCPSLAGKPKVFFIQACQGDNYQKGIPVETDSEEQPYLEMDLSSPQTRYIPDEADFLLGMATVNNCVSYRNPAEGTWYIQSLCQSLRERCPRGDDILTILTEVNYEVSNKDDKKNMGKQMPQPTFTLRKKLVFPSD
modifications: full-length
notes: full-length caspase-8 polypeptide, over-expressed
In the case of B1, the NFκB activation [1] is reported as “increase NFκB activation”.

B2: casp8p41 polypeptide: procaspase-8 cleavage fragment p41 generated by HIV protease (SEQ ID NO:2) (protein, listed as Homo sapiens)
chain: MDFSRNLYDIGEQLDSEDLASLKFLSLDYIPQRKQEPIKDALMLFQRLQEKRMLEESNLSFLKELLFRINRLDLLITYLNTRKEEMERELQTPGRAQISAYRVMLYQISEEVSRSELRSFKFLLQEEISKCKLDDDMNLLDIFIEMEKRVILGEGKLDILKRVCAQINKSLLKIINDYEEFSKERSSSLEGSPDEFSNGEELCGVMTISDSPREQDSESQTLDKVYQMKSKPRGYCLIINNHNFAKAREKVPKLHSIRDRNGTHLDAGALTTTFEELHFEIKPHDDCTVEQIYEILKIYQLMDHSNMDCFICCILSHGDKGIIYGTDGQEPPIYELTSQFTGLKCPSLAGKPKVF
B2 was tested, and the level of apoptosis (primary human T cells) was “induced a significantly greater level of apoptosis”, the “TUNEL positivity and active caspase-3 expression, flow cytometry gated on GFP-positive cells” value (HeLa cells) was “induces TUNEL positivity and active caspase-3 expression” and the NFκB activation [1] was “two-fold more than full-length caspase-8 polypeptide”. The “apoptotic signaling: Bid cleavage, cytochrome c release, caspase-9 and PARP cleavage” value [2] was “resulted in cleavage of Bid to p15 tBid, release of cytochrome c from the mitochondrial fraction into the cytosol, and cleavage of caspase-9 and PARP”.

B3: renin: another aspartyl protease (protein, UniProt P00797 67-406, looked up)
Renin: LTLGNTTSSVILTNYMDTQYYGEIGIGTPPQTFKVVFDTGSSNVWVPSSKCSRLYTACVYHKLFDASDSSSYKHNGTELTLRYSTGTVSGFLSQDIITVGGITVTQMFGEVTEMPALPFMLAEFDGVVGMGFIEQAIGRVTPIFDNIISQGVLKEDVFSFYYNRDSENSQSLGGQIVLGGSDPQHYEGNFHYINLIKTGVWQIQMKGVSVGSSTLLCEDGCLALVDTGASYISGSTSSIEKLMEALGAKKRLFDYVVKCNEGPTLPDISFHLGGKEYTLTSADYVFQESYSSKKLCTLAIHAMDIPPPTGPTWALGATFIRKFYTEFDRRNNRIGFALAR
In the case of B3, the “cleavage of Flag-procaspase-8-Myc fusion polypeptide” value (procaspase-8) is reported as “did not cause procaspase 8 cleavage”.
